Data published in the supplement of paper PMC9170038.

System: MS2 coat protein
Assay: apparent KD of MS2 coat protein; designed switch direction (-1 OFF switch, 1 ON switch): -1; higher = weaker reporter binding
How it was run: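 The buffer was Tris-HCl pH 7.5 with KCl, MgCl2, BSA, DTT, tRNA and Tween-20. In it, SNAP-549-labelled MS2 coat protein was titrated in doubling steps from 0.7 or 1.5 nM to 3 µM over chip-bound RNA switches transcribed by stalled E. coli RNA polymerase on Illumina chips. Apparent KD is the per-design median over clusters of curve fits to normalised fluorescence.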

[1] = input ligand: microRNA oligo, concentration not stated
[2] = Eterna round: R95, input ligand: FMN 200 uM
[3] = Eterna round: R95, input ligand: microRNA oligo, concentration not stated
[4] = Eterna round: R95, input ligand: none

Sequence: ACGGCGGCUCUAGGAUAUGACGACAUGAGGAUCACCCAUGUAGCCUUAGCCUUCACGAAAAUCGAUCAGAAGGAGAGCUCCAGG [Eternabot solution 19] (Eterna round: R96, puzzle: Exclusion NG 2)
- apparent KD of MS2 coat protein (input ligand: FMN 200 uM): 13.5 nM
- apparent KD of MS2 coat protein [1]: 10.9 nM
- apparent KD of MS2 coat protein (input ligand: none): 17.6 nM

Sequence: CCACGACAUGAGGAUCACCCAUGUGAGGAUAUGGCCUGAAAAGCGUGAGCAGAAUCAAUCAGAAGGCGCGUGGG [salish99_ex1_r4_060] (Eterna round: R97, puzzle: Exclusion 1)
- apparent KD of MS2 coat protein (input ligand: FMN 200 uM): 73.2 nM
- apparent KD of MS2 coat protein (input ligand: none): 45.7 nM

Sequence: GGACGGAUAGGAUAUACAUGAGGAUCACCCAUGUGAACCCAGCAGAGGCUUCUUUGCAGUAGAAGGGUCCUUUA [Eternabot (Original) Solution 43] (Eterna round: R97, puzzle: Exclusion 3)
- apparent KD of MS2 coat protein (input ligand: FMN 200 uM): 53.5 nM
- apparent KD of MS2 coat protein (input ligand: none): 47.5 nM

Sequence: CACCGUUAGCGAGGAUAUCGUACAUGAGGAUCACCCAUGUAAUAAAUGAGAAUUUCGGAUGUAUGCGAGAAGGCGCGAAUCGGC [Ostracism 34 - Jieux - Exclusion NG 2] (Eterna round: R96, puzzle: Exclusion NG 2)
- apparent KD of MS2 coat protein [1]: 36.6 nM

Sequence: CUGAGCUGAGGAUAUACAUGAGGAUCACCCAUGUUUUGUAGAUAGUGAAGAAGUAGAUGUAGAAGGCAGUUCGG [Mod of JL 24 - Jieux - Exclusion 3] (Eterna round: R97, puzzle: Exclusion 3)
- apparent KD of MS2 coat protein (input ligand: FMN 200 uM): 206 nM
- apparent KD of MS2 coat protein (input ligand: none): 146 nM

Sequence: AGGCUGUCAGGAUAUCUGCGCCGUGGUGCGCGGCGUUAUAAAGAGAAGGGACAUGAGGAUCACCCAUGUCCUCA [EX4 B.25] (Eterna round: R97, puzzle: Exclusion 4)
- apparent KD of MS2 coat protein (input ligand: FMN 200 uM): 79.7 nM
- apparent KD of MS2 coat protein (input ligand: none): 19.4 nM

Sequence: UGUACUAACACGAUAGUGUUAGUACUAUAAGCUUGUGUUACAUGAGGAUCACCCAUGUCCUCAUAAGCUCGUCUUGA [Mat - Sensor v3 - Turn-off var 2 - D93] (puzzle: Sensor v3, turn-off variant 2)
- apparent KD of MS2 coat protein [2]: 32.3 nM
- apparent KD of MS2 coat protein [3]: 712 nM
- apparent KD of MS2 coat protein [4]: 31.2 nM

Sequence: GGUCUGCGAGGAUAUACAUGAGGAUCACCCAUGUGCGAGUUACUUGUGAGGUCGGUUGGUAGAAGGCGCGGACG [JL-ex3-2.10 salish99 mod] (puzzle: Exclusion 3)
- apparent KD of MS2 coat protein [2]: 51.9 nM
- apparent KD of MS2 coat protein [3]: 68.6 nM
- apparent KD of MS2 coat protein [4]: 86.8 nM

Sequence: AAAUAGCAUGAGGAUAUUGAACUGUAUACAGUACGAGAAGGCAUGACAUGAGGAUCACCCAUGUUUUGUUGGGA [EX6 #4] (Eterna round: R97, puzzle: Exclusion 6)
- apparent KD of MS2 coat protein (input ligand: FMN 200 uM): 119 nM
- apparent KD of MS2 coat protein (input ligand: none): 49 nM

Sequence: AGAUGUAGAUACCGAUCCUACAUGAGGAUCACCCAUGUAGCUAGACGUGCCCGCGUCGCUCGUCAGACUACCAGUAG [salish99_TOv1_r3_090] (puzzle: Sensor v3, turn-off variant 1)
- apparent KD of MS2 coat protein [2]: 252 nM
- apparent KD of MS2 coat protein [3]: 248 nM
- apparent KD of MS2 coat protein [4]: 269 nM

Sequence: CCCACAAGCUUUUUGCUCGACAUGAGGAUCACCCAUGUAAAAUGGGUUAUAUAUAUAUGAAACAUAUAUAUAUACCU [-21.6, -47.5 kcal, A 35%] (Eterna round: R97, puzzle: Sensor, turn-off variant 1)
- apparent KD of MS2 coat protein (input ligand: FMN 200 uM): 43.9 nM
- apparent KD of MS2 coat protein (input ligand: none): 47.6 nM

Sequence: UAAUAGUGAGGAUAUACAGAAUCUGGGUCCCGCGUGUUGAGACAUGAGGAUCACCCAUGUAGAAGGCACAAAAU [Tetiage] (puzzle: Exclusion 2)
- apparent KD of MS2 coat protein [3]: 112 nM

Sequence: AGUCGAAAGACCCACAUGGACAUGAGGAUCACCCAUGUGCAAGCCUUUUGCUCGUCAGCUAGGUCAAAAGACCUAGC [JL Omei mod 1] (Eterna round: R97, puzzle: Sensor, turn-off variant 1)
- apparent KD of MS2 coat protein (input ligand: FMN 200 uM): 655 nM
- apparent KD of MS2 coat protein (input ligand: none): 813 nM

Sequence: UCAUGUUAGCAGGAUAUGCUAUUUAUUUUUUAUGCAGAAGGGCUUACAUGAGGAUCACCCAUGUGUUAGGUUUU [JR_E6_Sub073] (Eterna round: R96, puzzle: Exclusion 6)
- apparent KD of MS2 coat protein (input ligand: FMN 200 uM): 34.8 nM
- apparent KD of MS2 coat protein [1]: 41.5 nM
- apparent KD of MS2 coat protein (input ligand: none): 70.6 nM

Sequence: UAUCCACAUGAGGAUCACCCAUGUGAGGAUAUGUCCAUAUUCGGCAAAUCGGAUAUGGACAGAAGGCACACCGG [JR_Exclusion1_Sub011] (Eterna round: R96, puzzle: Exclusion 1)
- apparent KD of MS2 coat protein (input ligand: FMN 200 uM): 114 nM
- apparent KD of MS2 coat protein [1]: 28.5 nM
- apparent KD of MS2 coat protein (input ligand: none): 35.2 nM

Sequence: CUGGUCCGAGGAUAUAUUAAGUGAUACAUGAGGAUCACCCAUGUAAUUUAAUGGAAAUAAAUAGAAGGCGGACUAG [Mat - Exclusion 5 - JL mod - D51] (puzzle: Exclusion 5)
- apparent KD of MS2 coat protein [2]: 30 nM
- apparent KD of MS2 coat protein [3]: 65.3 nM
- apparent KD of MS2 coat protein [4]: 62.5 nM

Sequence: ACCAUGUCUGAGGAUAUGCAAGCGUACCACGCGGUAGAAGGCAGCACAUGAGGAUCACCCAUGUGGGUAUGCUA [Inanenqu] (puzzle: Exclusion 6)
- apparent KD of MS2 coat protein [2]: 15.3 nM
- apparent KD of MS2 coat protein [3]: 9.92 nM
- apparent KD of MS2 coat protein [4]: 14.8 nM

Sequence: GAAAAGGUAGGAUAUACGAAAAAAAAUGGUAGAAAAAAAACACAUGAGGAUCACCCAUGUAGAAGGACCAAAAG [salish99_ex2_r3_071] (puzzle: Exclusion 2)
- apparent KD of MS2 coat protein [2]: 23 nM
- apparent KD of MS2 coat protein [3]: 24.6 nM
- apparent KD of MS2 coat protein [4]: 17.9 nM

Sequence: UGAUCUAGCGGAGGAUAUACAUGAGGAUCACCCAUGUAUAGGCUAUCUGGUGACAGGUGGAACAUGUAGAAGGCCGCUAGAUCU [JL ENG2 3.80] (Eterna round: R96, puzzle: Exclusion NG 2)
- apparent KD of MS2 coat protein (input ligand: FMN 200 uM): 78.1 nM
- apparent KD of MS2 coat protein [1]: 12.7 nM
- apparent KD of MS2 coat protein (input ligand: none): 17.9 nM

Sequence: GCUUGUGGGCAAGGAUAUCCUACGUUGUUCUGGUUCGUGUCUGUCACAUGAGGAUCACCCAUGUGGGAGAAGGUGCAUUUGGUU [Design 60] (Eterna round: R96, puzzle: Exclusion NG 2)
- apparent KD of MS2 coat protein (input ligand: FMN 200 uM): 15.4 nM
- apparent KD of MS2 coat protein [1]: 12.4 nM
- apparent KD of MS2 coat protein (input ligand: none): 17.2 nM

Sequence: GCGCCAUCGUGAGAUGGCGUAUAUACAUGAGGAUCACCCAUGUAGGAUAUCGAUUGCUUUGCAGUCGAGAAGGGCGUGUAAUUU [JL ENG3 3.92] (Eterna round: R96, puzzle: Exclusion NG 3)
- apparent KD of MS2 coat protein (input ligand: FMN 200 uM): 45.7 nM
- apparent KD of MS2 coat protein [1]: 22.5 nM
- apparent KD of MS2 coat protein (input ligand: none): 34.8 nM

Sequence: AACAAGCUUUAAAGAUCCCACAUGAGGAUCACCCAUGUGCUCGUCUUGUAACGUACUGUGACGAAAGUCACGGUACG [JL TOV1 3.28] (Eterna round: R97, puzzle: Sensor, turn-off variant 1)
- apparent KD of MS2 coat protein (input ligand: FMN 200 uM): 24.6 nM
- apparent KD of MS2 coat protein (input ligand: none): 23.9 nM

Sequence: CCCAGAUAGGAAGGAUAUUGUACAUGAGGAUCACCCAUGUAAUAAAUGAGGAUCACGGAUGUAGACAAGAAGGUCCGGAUAAGC [Ostracism 6 - Jieux - Exclusion NG 2] (Eterna round: R96, puzzle: Exclusion NG 2)
- apparent KD of MS2 coat protein (input ligand: FMN 200 uM): 57.5 nM
- apparent KD of MS2 coat protein [1]: 29.3 nM
- apparent KD of MS2 coat protein (input ligand: none): 39.5 nM

Sequence: ACAUGAGGAUCACCCAUGUCGAGUACAUGAGGAUCACCCAUGUAGGAUAUGGUUCGCUUUGCGUGCUAGAAGGAUAUGUGUUGA [salish99_ExNG3_r04_510] (Eterna round: R96, puzzle: Exclusion NG 3)
- apparent KD of MS2 coat protein (input ligand: FMN 200 uM): 321 nM
- apparent KD of MS2 coat protein [1]: 148 nM
- apparent KD of MS2 coat protein (input ligand: none): 226 nM

Sequence: GGAAAGGUAGGAUAUACGAAGAAAAAGGGUAGAAUAAUAACACAUGAGGAUCACCCAUGUAGAAGGACCAAAGC [Mat - Exclusion 2 - Mod of my Tesla design - D13] (puzzle: Exclusion 2)
- apparent KD of MS2 coat protein [2]: 49.5 nM
- apparent KD of MS2 coat protein [3]: 21 nM
- apparent KD of MS2 coat protein [4]: 25.4 nM

Sequence: AGGUGUAGAGGAUAUUUAUACUCCCACAUGAGGAUCACCCAUGUCCUGGUCACCAAGGACGGAGAAGGCUACACCA [Omei Ex5 D23] (Eterna round: R97, puzzle: Exclusion 5)
- apparent KD of MS2 coat protein (input ligand: FMN 200 uM): 48.5 nM
- apparent KD of MS2 coat protein (input ligand: none): 41.8 nM

Sequence: AAGAGUGCAGGAUAUACGUGAGAAAGGAGGAUGAGAGAAGGACAUGAGGAUCACCCAUGUAGAAGGGCAGAGAG [JR_Exclu2_Sub060] (puzzle: Exclusion 2)
- apparent KD of MS2 coat protein [2]: 29.8 nM
- apparent KD of MS2 coat protein [3]: 36.4 nM
- apparent KD of MS2 coat protein [4]: 76.8 nM

Sequence: UAUAUAUAGUAAGGAUAUGUAUUAAUUUUGUAAACAGAAGGUACUGACAUGAGGAUCACCCAUGUUUUAGUGUGGGCAUGUAGA [JMF's solution 87] (Eterna round: R96, puzzle: Exclusion NG 1)
- apparent KD of MS2 coat protein [1]: 111 nM

Sequence: CUGAGCAGACGGAGAUCCAACAUGAGGAUCACCCAUGUCUCAAAAGCUUUUUGCUCAUCUUAUUGUACCUUGGUGCU [JL ViennaUCT Edcesobi mod 2] (puzzle: Sensor v3, turn-off variant 1)
- apparent KD of MS2 coat protein [2]: 391 nM
- apparent KD of MS2 coat protein [3]: 17.6 nM
- apparent KD of MS2 coat protein [4]: 342 nM

Sequence: GUCUCGUCAGGAUAUGACGCUACAUUUUGUUUUUAGAAGAGUCAGAAGGGACAUGAGGAUCACCCAUGUGAUUC [Ex4 - 3 - 1] (puzzle: Exclusion 4)
- apparent KD of MS2 coat protein [3]: 257 nM

Sequence: AGUACUAACACGAAAGUGUUAGUACAAUAAGCUUGUGAAACAUGAGGAUCACCCAUGUCCUCUUAAGCUCGUCUUAU [salish99_TOv2_r3_047] (puzzle: Sensor v3, turn-off variant 2)
- apparent KD of MS2 coat protein [2]: 116 nM
- apparent KD of MS2 coat protein [3]: 329 nM
- apparent KD of MS2 coat protein [4]: 124 nM

Sequence: AACGUGCUGCGAGGAUAUACAUGAGGAUCACCCAUGUGGAUGUCUGAGGCAAAGCCUCAGACAAUGUAGAAGGCGCAGUACGAA [Mat - Exclusion NG 2 - Mod of JL - D57] (Eterna round: R96, puzzle: Exclusion NG 2)
- apparent KD of MS2 coat protein (input ligand: FMN 200 uM): 72.5 nM
- apparent KD of MS2 coat protein [1]: 18.7 nM
- apparent KD of MS2 coat protein (input ligand: none): 19.6 nM
